In patent publication US20230390340A1:

Molecular target: ApoE dependent receptors (on bEND.3 mouse endothelial cells) (mouse)
Assay: cell-based or functional assay

uptake of IDS.ApoEII into bEND.3 cells after 24 hours, following blocking with human recombinant ApoE: 30%
Substance: IDS.ApoEII (human iduronate-2-sulfatase with C-terminal invariant flexible linker and ApoE receptor-binding tandem repeat) (from UniProt P22304 26-550) (enzyme)
